Results reported in the supplement of paper PMC7125110.
± gives the standard error. For some assays here: Variants at the floor of the assay were thinned out.

B1: glmS ribozyme (parent)
chain: AUAAAAGCGCCAGAACUACAGAAAUGUAGUUGACGAGGAGGAGGUUUAUCGAAUUUUCGGCGGAUGCCUCCAAA

Legend:
Details in all cases: with glucosamine-6-phosphate
[1] = variants of: B1; test: kcat; higher = faster cleavage; RNA array
In short: (§1)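 Glucosamine-6-phosphate (40 μM to 10 mM) in HEPES/KCl/Mg(OAc)2 buffer was flowed over sequenced MiSeq chips, and tiles were imaged over ~14 h. Barcoded ribozyme variants there had been transcribed in situ by E. coli RNA polymerase and were tracked through a hybridised Cy3 probe at 37 °C. One- or two-exponential decay fits to per-tile medians, normalised to baseline and to non-cleaving reference variants, gave kobs. kcat and KM came from weighted Michaelis–Menten fits across concentrations.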

[2] = variants of: B1; test: KM; higher = weaker cofactor use; RNA array
In short: as §1

[3] = variants of: B1; test: self-cleavage kobs at 40 uM GlcN6P; higher = faster cleavage; RNA array
In short: as §1

[4] = variants of: B1; test: self-cleavage kobs at 160 uM GlcN6P; higher = faster cleavage; RNA array
In short: as §1

[5] = variants of: B1; test: self-cleavage kobs at 640 uM GlcN6P; higher = faster cleavage; RNA array
In short: as §1

[6] = variants of: B1; test: self-cleavage kobs at 2500 uM GlcN6P; higher = faster cleavage; RNA array
In short: as §1

[7] = variants of: B1; test: self-cleavage kobs at 10000 uM GlcN6P; higher = faster cleavage; RNA array
In short: as §1

| Variant | kcat [1] | KM [2] | self-cleavage kobs at 40 uM GlcN6P [3] | self-cleavage kobs at 160 uM GlcN6P [4] | self-cleavage kobs at 640 uM GlcN6P [5] | self-cleavage kobs at 2500 uM GlcN6P [6] | self-cleavage kobs at 10000 uM GlcN6P [7] |
| --- | --- | --- | --- | --- | --- | --- | --- |
| AUAAAAGCGCCAGAACUACAGAAAUGUAGUUGACGAGGAGGAGGUUUAUCGAAUUUUCGGCGGAUGUCUCCAAA | 0.0229 ± 0.0033 s⁻¹ | 1910 ± 390 µM | 0.000527 ± 1.7e-05 s⁻¹ | 0.0016 ± 0.00012 s⁻¹ | 0.00529 ± 0.0002 s⁻¹ | 0.0117 ± 0.00055 s⁻¹ | 0.0215 ± 0.00087 s⁻¹ |
| AUAAAAGCGCCCGAACUACAGAAAUGUACUUGACGAGGAGGAGGUUUAUCGAAUUUUCGGCGGAUGCCUCCAAA | 0.00327 ± 0.00068 s⁻¹ | 2770 ± 820 µM | 6.03e-05 ± 6.2e-06 s⁻¹ | 0.000193 ± 2.7e-05 s⁻¹ | 0.000508 ± 5.3e-05 s⁻¹ | 0.00139 ± 0.00023 s⁻¹ | 0.00271 ± 0.00022 s⁻¹ |
| AUAAAAGCGCCAGAACUACAGAAAUGUAGUCGACGAGGAGUAGGUUUAUCGAAUUUUCGGCGGAUGCCUCCAAA | 0.000175 ± 1.4e-05 s⁻¹ | 1350 ± 260 µM | – | – | 5.36e-05 ± 1e-05 s⁻¹ | 0.000117 ± 1.7e-05 s⁻¹ | 0.000153 ± 2e-05 s⁻¹ |
| AUAAAAGCGCCAGAUUUACAGAAAUGUAGUUGACGAGGAGGAGGUUUAUCGAAUUUUCGGCGGAUGCCUCCAAA | 0.00176 ± 0.00028 s⁻¹ | 1750 ± 440 µM | 4.63e-05 ± 9.6e-06 s⁻¹ | 0.000152 ± 3.2e-05 s⁻¹ | 0.000423 ± 9.6e-05 s⁻¹ | 0.000885 ± 0.00016 s⁻¹ | 0.00172 ± 0.00026 s⁻¹ |
| AUAAAAGCGCCAGAUCUACAGAAAUGUAGUUGUCGAGGAGGAGGUUUAUCGAAUUUUCGGCGGAUGCCUCCAAA | 5.77e-05 ± 6.8e-06 s⁻¹ | – | – | – | – | 5.26e-05 ± 1e-05 s⁻¹ | 5.13e-05 ± 7.3e-06 s⁻¹ |
| AUAAAAACGCCAGAACUACAGAAAUGUAGUUGACGAGGAGGAGGUUUAUCGAUUUUUCGGCGGAUGCCUCCAAA | 2.79e-05 ± 1.1e-05 s⁻¹ | – | – | – | – | – | – |
| AUAAAAGCGCCAGAACUACAGAAAUGUAGGUGACGAGGAGGAGGUUUAUUGAAUUUUCGGCGGAUGCCUCCAAA | < 1e-05 s⁻¹ | – | – | < 1e-05 s⁻¹ | – | – | – |
| AUAAAAGCGCCAGAACUACAGAAAUGUAGUUGACGAGGAGUAGGUUUAUCGAAUUAUCGGCGGAUGCCUCCAAA | 0.00219 ± 0.00072 s⁻¹ | 4700 ± 2000 µM | 3.42e-05 ± 8.2e-06 s⁻¹ | 7.37e-05 ± 1.6e-05 s⁻¹ | 0.000234 ± 3.5e-05 s⁻¹ | 0.000769 ± 0.0001 s⁻¹ | 0.00153 ± 0.00029 s⁻¹ |
| AUAAAAGCGCCAGAACUACAGAAAUGUAGUUGACGAGGAGGAGGUUUAUCGAAUUUUCGGCGGUUGCCGCCAAA | 4.17e-05 ± 1.2e-05 s⁻¹ | – | – | 4.51e-05 ± 1.8e-05 s⁻¹ | – | 5.01e-05 ± 1.9e-05 s⁻¹ | – |
| AUAAAAGCGCCAGAUCUACAGAAAUGUAGUUGACGAGGAGGAGGUUUAUCGAUUUUUCGGCGGAUGCCUCCAAA | 0.00543 ± 0.0013 s⁻¹ | 2950 ± 940 µM | 9.26e-05 ± 9.9e-06 s⁻¹ | 0.000245 ± 3.8e-05 s⁻¹ | 0.000755 ± 0.00012 s⁻¹ | 0.00314 ± 0.00055 s⁻¹ | 0.0042 ± 0.00042 s⁻¹ |
| AUAAAAGCGCCAGAACUACAGAAAUGUAUGUGACGAGGAGGAGGUUUAUCGAAUUUUCGGCGGAUGCCUCCAAA | 0.00393 ± 0.0013 s⁻¹ | 1780 ± 820 µM | 9.59e-05 ± 1.7e-05 s⁻¹ | 0.000286 ± 5.6e-05 s⁻¹ | 0.00131 ± 0.00023 s⁻¹ | 0.00182 ± 0.00035 s⁻¹ | 0.00493 ± 0.001 s⁻¹ |
| AUAAAAGCGCCAGAACUACAGAAAUGUAGUUUACGAGGAGGAGGUUUAUCUAAUAUUCGGCGGAUGCCUCCAAA | 1.45e-05 ± 2.5e-06 s⁻¹ | – | – | – | – | – | – |
| AUAAAAGCGCCAGAACUACAGAAAUGUAGUUGACGAGGAGGAGGUUUAUCGAAUUUUCGGCGGAAGCAUCCAAA | 8.88e-05 ± 1.5e-05 s⁻¹ | – | – | 5.78e-05 ± 1.6e-05 s⁻¹ | 8.74e-05 ± 1.1e-05 s⁻¹ | 0.00015 ± 2.2e-05 s⁻¹ | 7.53e-05 ± 8.6e-06 s⁻¹ |
| AUAAAAGCGCCAGAGCUACAGAAAUGUAGUUGACGAGGAGGAGGUCUAUCGAAUUUUCGGCGGAUGCCUCCAAA | 0.00378 ± 0.0014 s⁻¹ | 1440 ± 680 µM | 0.000112 ± 2.9e-05 s⁻¹ | 0.000465 ± 0.00016 s⁻¹ | 0.000897 ± 0.00029 s⁻¹ | – | 0.00388 ± 0.0013 s⁻¹ |
| AUAAAAGCGCCAGCACUACAGAAAUGUAGUUGACGAGGAGGAGGGUUAUCGAAUUUUCGGCGGAUGCCUCCAAA | 0.00127 ± 0.00013 s⁻¹ | 3410 ± 600 µM | – | 6.63e-05 ± 1.5e-05 s⁻¹ | 0.000181 ± 2.6e-05 s⁻¹ | 0.000606 ± 9.4e-05 s⁻¹ | 0.000933 ± 9.1e-05 s⁻¹ |
